Results as given in US20110151450.
Numbering of substitutions follows the chain as printed.

Key:
Experiment in all cases: cleavage_in_vitro
[1] = system: StyI-HF K75A (Salmonella typhi); details: NEB4, relative activity 50%
[2] = system: StyI-WT (Salmonella typhi); details: NEB4, relative activity 25%
[3] = system: BsrDI-HF (BsrDIA + mutant BsrDIB) Q230A/K363A (BsrDIB) (Bacillus stearothermophilus); details: NEB4, relative activity 100%
[4] = system: T1, AatII-WT (Acetobacter aceti); details: NEB4, relative activity 50%
T1 sequence: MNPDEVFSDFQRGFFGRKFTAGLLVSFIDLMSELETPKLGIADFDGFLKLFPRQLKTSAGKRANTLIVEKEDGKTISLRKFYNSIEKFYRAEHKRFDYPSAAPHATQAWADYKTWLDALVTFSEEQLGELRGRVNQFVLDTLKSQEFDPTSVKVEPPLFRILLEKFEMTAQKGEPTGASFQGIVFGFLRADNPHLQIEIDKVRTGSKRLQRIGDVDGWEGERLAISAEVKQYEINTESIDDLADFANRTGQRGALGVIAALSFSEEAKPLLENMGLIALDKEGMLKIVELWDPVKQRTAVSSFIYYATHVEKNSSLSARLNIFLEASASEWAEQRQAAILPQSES

[5] = system: BsrDI-WT (BsrDIA + BsrDIB) (Bacillus stearothermophilus); details: NEB4, relative activity 25%
[6] = system: T2, BstNI-WT (Bacillus stearothermophilus); details: NEB4, relative activity 50%
T2 sequence: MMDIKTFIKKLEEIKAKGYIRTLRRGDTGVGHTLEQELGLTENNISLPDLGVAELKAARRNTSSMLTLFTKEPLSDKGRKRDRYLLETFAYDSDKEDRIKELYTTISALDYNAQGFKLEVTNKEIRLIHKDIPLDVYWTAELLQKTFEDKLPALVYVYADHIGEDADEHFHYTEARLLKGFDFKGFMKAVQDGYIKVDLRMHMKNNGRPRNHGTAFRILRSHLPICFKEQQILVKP

[7] = system: T3, KasI-HF N251A (Kluyvera ascorbata); details: NEB4, relative activity 100%
T3 sequence: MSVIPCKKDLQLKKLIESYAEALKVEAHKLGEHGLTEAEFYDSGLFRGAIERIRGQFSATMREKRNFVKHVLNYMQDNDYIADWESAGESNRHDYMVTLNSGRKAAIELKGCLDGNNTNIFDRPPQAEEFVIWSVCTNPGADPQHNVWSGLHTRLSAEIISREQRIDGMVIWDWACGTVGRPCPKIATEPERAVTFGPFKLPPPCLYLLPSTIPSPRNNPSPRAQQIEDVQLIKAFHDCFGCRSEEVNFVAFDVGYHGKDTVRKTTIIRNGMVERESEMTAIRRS

[8] = system: T4, BsrFI-WT (Bacillus stearothermophilus); details: NEB4, relative activity 50%
T4 sequence: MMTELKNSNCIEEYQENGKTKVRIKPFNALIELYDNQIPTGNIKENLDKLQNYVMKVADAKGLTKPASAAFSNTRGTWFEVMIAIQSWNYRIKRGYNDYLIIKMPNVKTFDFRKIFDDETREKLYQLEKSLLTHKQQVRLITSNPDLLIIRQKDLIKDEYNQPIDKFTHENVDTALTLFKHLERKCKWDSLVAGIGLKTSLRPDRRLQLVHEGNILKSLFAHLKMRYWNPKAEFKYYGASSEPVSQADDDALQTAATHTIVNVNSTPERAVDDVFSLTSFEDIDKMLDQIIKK

[9] = system: T5, BsaJI-HF D200A (Bacillus stearothermophilus); details: NEB4, relative activity 100%
T5 sequence: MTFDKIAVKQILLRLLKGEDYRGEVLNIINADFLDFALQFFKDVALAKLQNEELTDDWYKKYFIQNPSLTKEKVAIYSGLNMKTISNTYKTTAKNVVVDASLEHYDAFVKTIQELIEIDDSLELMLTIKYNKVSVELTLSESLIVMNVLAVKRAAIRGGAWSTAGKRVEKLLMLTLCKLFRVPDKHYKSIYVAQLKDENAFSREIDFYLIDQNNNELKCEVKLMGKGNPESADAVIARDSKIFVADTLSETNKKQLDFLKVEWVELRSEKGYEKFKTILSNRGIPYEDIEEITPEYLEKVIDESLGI

[10] = system: T6, KasI-WT (Kluyvera ascorbata); details: NEB4, relative activity 100%
T6 sequence: T3 sequence with A251N

[11] = system: T7, AatII-HF N235A (Acetobacter aceti); details: NEB4, relative activity 100%; Table 1 lists pXba
T7 sequence: T1 sequence with N235A

[12] = system: T8, BsaJI-WT (Bacillus stearothermophilus); details: NEB4, relative activity 100%
T8 sequence: T5 sequence with A200D

[13] = system: T9, BstNI-HF G26T (Bacillus stearothermophilus); details: NEB4, relative activity 100%
T9 sequence: T2 sequence with G26T

[14] = target: KpnI-WT (Klebsiella pneumoniae) (UniProt P25237); details: NEB4, relative activity 50%
[15] = target: KpnI-HF D16N/D148E (Klebsiella pneumoniae) (UniProt P25237); details: NEB4, relative activity 100%

## lambda DNA, StyI sites
[1]
  activity (fidelity index): 4000
[2]
  activity (fidelity index): 16

## pBR322 plasmid
[3]
  activity (fidelity index): > 1000
[4]
  activity (fidelity index): 16
[5]
  activity (fidelity index): 0.5
[6]
  activity (fidelity index): 4
[7]
  activity (fidelity index): > 16000
[8]
  activity (fidelity index): 16
[9]
  activity (fidelity index): > 4000
[10]
  activity (fidelity index): 4
[11]
  activity (fidelity index): > 1000
[12]
  activity (fidelity index): 64
[13]
  activity (fidelity index): 500

## pXba plasmid, KpnI sites
[14]
  activity (fidelity index): 4
[15]
  activity (fidelity index): > 1e+06
